In assay [1] the test system is A/Wisconsin/67/2005 (H3N2)-overexpressing 3T3 cells. The settings on record: read-out: EC50 FcγRIIIA activation (ADCC-Glo reporter bioassay).
Assay [2] shares this test system. The settings on record: read-out: EC50 ADCC with human donor PBMCs.

Like-named read-outs stand apart in the source and are kept apart here.

B1: H1H14612N2: fully human anti-influenza A group 2 HA monoclonal antibody, HCVR/LCVR SEQ ID NOs: 18/26 (antibody, V domains shown)
VH: EVQLVESGGGLVKPGGSLRLSCAASGFSFSGFSMNWVRQAPGKGLEWVSSISTSGNYMYYADSVKGRFTISRDNAKKSFSLQMNSLRAEDSAIYYCARGGGYNWNLFDYWGQGSLVTVSS
VL: EIVLTQSPGTLSLSPGERATLSCRASQSLNSNYLAWYQQKPGQAPRLLIYGASSRATGIPDRFSGSGSGADFTLTISRLESEDFAVYYCQQYGNSPLTFGGGTKVEIK
As for B1, the EC50 (usually the concentration needed to bring the measured effect to its halfway point) in assay [1] stood at 0.688 nM; in assay [2] it was 0.176 nM.

The record behind these values is patent US11780907B2, “Human antibodies to influenza hemagglutinin” (Regeneron Pharmaceuticals, Inc., priority 2018, dated 2023).
